Experimental findings from US20260109745A1 (published 2026) are described below.

Ends that are not written are not given here.

The test has as its target T1, NEO-101 antibody (chimeric NPC-1 antibody).
T1 construct: Chimeric (murine variable, human constant regions); Used unlabelled, biotinylated, FITC-labelled or coupled to Dynal beads depending on the assay; also called NPC-1C; NPC-1-C
The experiment in a line: ELISA: peptide-biotin on NEO-101 coated plate. The protocol:
To solve the poor binding of peptides to 96 well plate, peptides were biotinylated using EZ-link micro NHS Biotinylation kit (Pierce Cat #21955), and labeling efficiency checked by dot blot (50%). […] The solution was blocked with 200 μl of 1% milk in TBS at RT for 20 min. Aliquots of 100 μl peptide-biotin (1 μg/ml) in 0.1% milk-TBS were added, and incubated at RT of 2 hr, followed by three washes with TBST. Streptavidin-HRP (100 μl of 1:2000 diluted in 1:10 diluted blocking buffer) was added, and the wells incubated at RT for 1 hr, followed by three washed. TMB was then added, and the wells were read at 450 nm. Positive controls for NPC-1C binding used 4B6-biotin. The results are shown in FIG. 11, which indicates biotinylated peptides bind to NPC-1C coated plate.
Background: In an ELISA, binding on a coated surface is turned into a signal by an enzyme label.

T1 sequence (VH, as listed by the source limits assumed, chain 1 of 2): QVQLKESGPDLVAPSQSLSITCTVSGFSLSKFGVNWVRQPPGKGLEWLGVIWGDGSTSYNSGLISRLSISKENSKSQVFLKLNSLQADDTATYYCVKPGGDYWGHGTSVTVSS
T1 sequence (VL, as listed by the source limits assumed, chain 2 of 2): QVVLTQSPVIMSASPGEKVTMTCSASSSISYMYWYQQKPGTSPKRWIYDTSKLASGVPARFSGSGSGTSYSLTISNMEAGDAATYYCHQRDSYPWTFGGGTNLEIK

YSHSVHAIEDNWSPRGGGGS (also: biotinylated (NHS kit) in direct ELISA, unlabelled in competition assays, Negative control peptide) [synthetic peptide 4-1-3-C11 (control peptide)]: the binding result was “no binding (tested: 1 ug/ml)”.
